Consider twelve compounds from publication PMC7558102, “Hybrid Multimodal Imaging Synthons for Chemoselective and Efficient Biomolecule Modification with Chelator and Near-Infrared Fluorescent Cyanine Dye” (Pharmaceuticals, 2020).

Broadly, the logD is lipophilicity at a set pH, counting ionised and neutral species.

Where two headings read alike, the source gives them in different places.

Data set [1] in a line: water/1-octanol partition coefficients (logD) of 68Ga-labeled compounds, γ-counting. The note with it: pH 7.4. The class given is physicochemical. The method, then:
The mixtures were vigorously shaken for 5 min on a vibrating plate. After subsequent centrifugation at 13,000 rpm for 5 min, 125 µL was taken from each phase and measured in a γ-counter. The logD values were calculated from three or four independent experiments, each performed in triplicate. For 18, the logD was determined by semipreparative HPLC. For this purpose, a solution of 18 (10 µL, c = 5 × 10^−4 mol/L) in water was added to a mixture of 1 mL 1-octanol and 990 µL phosphate buffered solution (0.05 M, pH 7.4) and vigorously shaken for 5 min. After centrifugation, the phases were separated and both phases were analyzed by semipreparative HPLC and the peaks of the UV signals at 214 nm were integrated. The logD was determined by three separate measurements, each experiment performed in triplicate.

Data set [2] in a line: photophysical properties (absorbance and emission measurements). The class given is physicochemical. Conditions: for λmax(em): excitation wavelength λex = 650 nm. The method, then: Finally, the photophysical properties were determined for dyes, MIS and their conjugates. It could be shown that the photophysical properties remained largely unaltered, including absorption coefficients and emission characteristics (Table 1). […] The only change in photophysical properties we qualitatively observed was an increase in the quantum yields of the dye conjugates compared to their unconjugated leads 1–3, an effect that was described before and can be attributed to the conjugation of sterically demanding groups (such as the PESIN homodimers used here), resulting in a decrease in aggregation of the dye molecules and thus a reduced fluorescence quenching. γ-Counting was performed using a 2480 Wizard gamma counter system from Perkin Elmer. A Cary 100 Bio system (Varian) was used to record the UV/Vis-Spectra together with 4 mL PMMA cuvettes from Sigma-Aldrich. Furthermore, for absorbance and emission measurements, a Tecan Infinite M200 Microplate reader together with a Nunc Micro-Well 96 solid plate from ThermoFisher was used.

In data set [1], `CC1(C)C(/C=C/C2=C(c3ccc(C(=O)NCCCC[C@H](NC(=O)CC[C@H](C(=O)O)N4CCN(CC(=O)O)CCN(CC(=O)O)CC4)C(=O)N[C@@H](CS)C(N)=O)cc3)C(=C/C=C3/N(CCCCS(=O)(=O)[O-])c4ccc5ccccc5c4C3(C)C)/CCC2)=[N+](CCCCS(=O)(=O)O)c2ccc3ccccc3c21` (single isomer, unassigned) [[68Ga]Ga-10, metal not drawn] gave a logD of -1.29 ± 0.11.
On the same count and under the same terms, the same measure for `CC1(C)C(=CC=C2CCCC(C=CC3=[N+](CCCCS(=O)(=O)[O-])c4ccc(C(=O)NCCCC[C@H](NC(=O)CC[C@H](C(=O)O)N5CCN(CC(=O)O)CCN(CC(=O)O)CC5)C(=O)N[C@@H](CS)C(N)=O)cc4C3(C)C)=C2c2ccccc2)N(CCCCS(=O)(=O)O)c2ccc(S(=O)(=O)O)cc21` (single isomer, unassigned) [[68Ga]Ga-11, metal not drawn]: -3.05 ± 0.08; for `CC1(C)C(=CC=C2CCCC(C=CC3=[N+](CCCCS(=O)(=O)[O-])c4ccc(S(=O)(=O)O)cc4C3(C)C)=C2c2ccc(CCC(=O)NCCCC[C@H](NC(=O)CC[C@H](C(=O)O)N3CCN(CC(=O)O)CCN(CC(=O)O)CC3)C(=O)N[C@@H](CS)C(N)=O)cc2)N(CCCCS(=O)(=O)O)c2ccc(S(=O)(=O)O)cc21` (single isomer, unassigned) [[68Ga]Ga-12, metal not drawn]: -3.47 ± 0.17.
Regarding `CC1(C)C(/C=C/C2=C(c3ccc(C(=O)NCCCC[C@H](NC(=O)CC[C@H](C(=O)O)N4CCN(CC(=O)O)CCN(CC(=O)O)CC4)C(=O)N[C@@H](CS)C(N)=O)cc3)C(=C/C=C3/N(CCCCS(=O)(=O)[O-])c4ccc5ccccc5c4C3(C)C)/CCC2)=[N+](CCCCS(=O)(=O)O)c2ccc3ccccc3c21` [Compound 10], in data set [1], the log distribution coefficient (logD) was −1.29 ± 0.11.
With `CC1(C)C(=CC=C2CCCC(C=CC3=[N+](CCCCS(=O)(=O)[O-])c4ccc(C(=O)NCCCC[C@H](NC(=O)CC[C@H](C(=O)O)N5CCN(CC(=O)O)CCN(CC(=O)O)CC5)C(=O)N[C@@H](CS)C(N)=O)cc4C3(C)C)=C2c2ccccc2)N(CCCCS(=O)(=O)O)c2ccc(S(=O)(=O)O)cc21` [Compound 11], the logD in data set [1] is on record as −3.05 ± 0.08.
The same measure, in the same setting: then `CC1(C)C(=CC=C2CCCC(C=CC3=[N+](CCCCS(=O)(=O)[O-])c4ccc(S(=O)(=O)O)cc4C3(C)C)=C2c2ccc(CCC(=O)NCCCC[C@H](NC(=O)CC[C@H](C(=O)O)N3CCN(CC(=O)O)CCN(CC(=O)O)CC3)C(=O)N[C@@H](CS)C(N)=O)cc2)N(CCCCS(=O)(=O)O)c2ccc(S(=O)(=O)O)cc21` [Compound 12], with −3.47 ± 0.17.
As for `CSCC[C@H](NC(=O)[C@H](CC(C)C)NC(=O)[C@H](Cc1c[nH]cn1)NC(=O)CNC(=O)[C@@H](NC(=O)[C@H](C)NC(=O)[C@H](Cc1c[nH]c2ccccc12)NC(=O)[C@H](CCC(N)=O)NC(=O)CCOCCOCCOCCOCCNC(=O)CON=Cc1ccc(C(=O)NCCCN(CCCNC(=O)c2ccc(C=NOCC(=O)NCCOCCOCCOCCOCCC(=O)N[C@@H](CCC(N)=O)C(=O)N[C@@H](Cc3c[nH]c4ccccc34)C(=O)N[C@@H](C)C(=O)N[C@H](C(=O)NCC(=O)N[C@@H](Cc3c[nH]cn3)C(=O)N[C@@H](CC(C)C)C(=O)N[C@@H](CCSC)C(N)=O)C(C)C)cc2)CC(=O)N[C@H](CSC2CC(=O)N(CCN3C(=O)CC(SC[C@H](NC(=O)[C@H](CCCCNC(=O)c4ccc(C5=C(C=CC6=[N+](CCCCS(=O)(=O)[O-])c7ccc8ccccc8c7C6(C)C)CCCC5=CC=C5N(CCCCS(=O)(=O)O)c6ccc7ccccc7c6C5(C)C)cc4)NC(=O)CC[C@H](C(=O)O)N4CCN(CC(=O)O)CCN(CC(=O)O)CC4)C(N)=O)C3=O)C2=O)C(=O)NCCOCCOCC(N)=O)cc1)C(C)C)C(N)=O` (stereo partly drawn) [Compound 14], in data set [2], the “Stokes Shift” value is reported as 10 nm, the “λmax(abs)” value is given as 735/810 and the “λmax(em)” value amounted to 820 nm.
In the same order, the values of `CSCC[C@H](NC(=O)[C@H](CC(C)C)NC(=O)[C@H](Cc1c[nH]cn1)NC(=O)CNC(=O)[C@@H](NC(=O)[C@H](C)NC(=O)[C@H](Cc1c[nH]c2ccccc12)NC(=O)[C@H](CCC(N)=O)NC(=O)CCOCCOCCOCCOCCNC(=O)CON=Cc1ccc(C(=O)NCCCN(CCCNC(=O)c2ccc(C=NOCC(=O)NCCOCCOCCOCCOCCC(=O)N[C@@H](CCC(N)=O)C(=O)N[C@@H](Cc3c[nH]c4ccccc34)C(=O)N[C@@H](C)C(=O)N[C@H](C(=O)NCC(=O)N[C@@H](Cc3c[nH]cn3)C(=O)N[C@@H](CC(C)C)C(=O)N[C@@H](CCSC)C(N)=O)C(C)C)cc2)CC(=O)N[C@H](CSC2CC(=O)N(CCN3C(=O)CC(SC[C@H](NC(=O)[C@H](CCCCNC(=O)c4ccc5c(c4)C(C)(C)C(C=CC4=C(c6ccccc6)C(=CC=C6N(CCCCS(=O)(=O)O)c7ccc(S(=O)(=O)O)cc7C6(C)C)CCC4)=[N+]5CCCCS(=O)(=O)[O-])NC(=O)CC[C@H](C(=O)O)N4CCN(CC(=O)O)CCN(CC(=O)O)CC4)C(N)=O)C3=O)C2=O)C(=O)NCCOCCOCC(N)=O)cc1)C(C)C)C(N)=O` (stereo partly drawn) [Compound 15] are 30 nm, 705/770 and 800 nm.
In the same order, the values of `CSCC[C@H](NC(=O)[C@H](CC(C)C)NC(=O)[C@H](Cc1c[nH]cn1)NC(=O)CNC(=O)[C@@H](NC(=O)[C@H](C)NC(=O)[C@H](Cc1c[nH]c2ccccc12)NC(=O)[C@H](CCC(N)=O)NC(=O)CCOCCOCCOCCOCCNC(=O)CON=Cc1ccc(C(=O)NCCCN(CCCNC(=O)c2ccc(C=NOCC(=O)NCCOCCOCCOCCOCCC(=O)N[C@@H](CCC(N)=O)C(=O)N[C@@H](Cc3c[nH]c4ccccc34)C(=O)N[C@@H](C)C(=O)N[C@H](C(=O)NCC(=O)N[C@@H](Cc3c[nH]cn3)C(=O)N[C@@H](CC(C)C)C(=O)N[C@@H](CCSC)C(N)=O)C(C)C)cc2)CC(=O)N[C@H](CSC2CC(=O)N(CCN3C(=O)CC(SC[C@H](NC(=O)[C@H](CCCCNC(=O)CCc4ccc(C5=C(C=CC6=[N+](CCCCS(=O)(=O)[O-])c7ccc(S(=O)(=O)O)cc7C6(C)C)CCCC5=CC=C5N(CCCCS(=O)(=O)O)c6ccc(S(=O)(=O)O)cc6C5(C)C)cc4)NC(=O)CC[C@H](C(=O)O)N4CCN(CC(=O)O)CCN(CC(=O)O)CC4)C(N)=O)C3=O)C2=O)C(=O)NCCOCCOCC(N)=O)cc1)C(C)C)C(N)=O` (stereo partly drawn) [Compound 16] are 20 nm, 700/770 and 790 nm.
`NC(=O)C(CS)NC(=O)CNC(=O)CCC(C(=O)O)N1CCN(CC(=O)O)CCN(CC(=O)O)CC1` (stereo not drawn) [Compound 19, NH2-Cys-Gly-NODA-GA]: in data set [1] (68Ga-labeled compound, 1-octanol / phosphate buffer 0.05 M, read-out: logD), the logD was -3.35 ± 0.15.
On to `CSCC[C@H](NC(=O)[C@H](CC(C)C)NC(=O)[C@H](Cc1c[nH]cn1)NC(=O)CNC(=O)[C@@H](NC(=O)[C@H](C)NC(=O)[C@H](Cc1c[nH]c2ccccc12)NC(=O)[C@H](CCC(N)=O)NC(=O)CCOCCOCCOCCOCCNC(=O)CON=Cc1ccc(C(=O)NCCCN(CCCNC(=O)c2ccc(C=NOCC(=O)NCCOCCOCCOCCOCCC(=O)N[C@@H](CCC(N)=O)C(=O)N[C@@H](Cc3c[nH]c4ccccc34)C(=O)N[C@@H](C)C(=O)N[C@H](C(=O)NCC(=O)N[C@@H](Cc3c[nH]cn3)C(=O)N[C@@H](CC(C)C)C(=O)N[C@@H](CCSC)C(N)=O)C(C)C)cc2)CC(=O)N[C@H](CSC2CC(=O)N(CCN3C(=O)CC(SC[C@H](NC(=O)[C@H](CCCCNC(=O)c4ccc(C5=C(C=CC6=[N+](CCCCS(=O)(=O)[O-])c7ccc8ccccc8c7C6(C)C)CCCC5=CC=C5N(CCCCS(=O)(=O)O)c6ccc7ccccc7c6C5(C)C)cc4)NC(=O)CC[C@H](C(=O)O)N4CCN(CC(=O)O)CCN(CC(=O)O)CC4)C(N)=O)C3=O)C2=O)C(=O)NCCOCCOCC(N)=O)cc1)C(C)C)C(N)=O` (stereo partly drawn) [[68Ga]Ga-14, metal not drawn], for which the logD in data set [1] was -1.33 ± 0.04.
Still for that read-out and setting: the same measure for `CSCC[C@H](NC(=O)[C@H](CC(C)C)NC(=O)[C@H](Cc1c[nH]cn1)NC(=O)CNC(=O)[C@@H](NC(=O)[C@H](C)NC(=O)[C@H](Cc1c[nH]c2ccccc12)NC(=O)[C@H](CCC(N)=O)NC(=O)CCOCCOCCOCCOCCNC(=O)CON=Cc1ccc(C(=O)NCCCN(CCCNC(=O)c2ccc(C=NOCC(=O)NCCOCCOCCOCCOCCC(=O)N[C@@H](CCC(N)=O)C(=O)N[C@@H](Cc3c[nH]c4ccccc34)C(=O)N[C@@H](C)C(=O)N[C@H](C(=O)NCC(=O)N[C@@H](Cc3c[nH]cn3)C(=O)N[C@@H](CC(C)C)C(=O)N[C@@H](CCSC)C(N)=O)C(C)C)cc2)CC(=O)N[C@H](CSC2CC(=O)N(CCN3C(=O)CC(SC[C@H](NC(=O)[C@H](CCCCNC(=O)c4ccc5c(c4)C(C)(C)C(C=CC4=C(c6ccccc6)C(=CC=C6N(CCCCS(=O)(=O)O)c7ccc(S(=O)(=O)O)cc7C6(C)C)CCC4)=[N+]5CCCCS(=O)(=O)[O-])NC(=O)CC[C@H](C(=O)O)N4CCN(CC(=O)O)CCN(CC(=O)O)CC4)C(N)=O)C3=O)C2=O)C(=O)NCCOCCOCC(N)=O)cc1)C(C)C)C(N)=O` (stereo partly drawn) [[68Ga]Ga-15, metal not drawn]: -2.48 ± 0.14.
